T1: human CD73 expressed at the surface of cells (human, UniProt P21589 27-549)
T1 construct: T cells in the proliferation assays; also called huCD73; CD73-expressing cells
T1 sequence: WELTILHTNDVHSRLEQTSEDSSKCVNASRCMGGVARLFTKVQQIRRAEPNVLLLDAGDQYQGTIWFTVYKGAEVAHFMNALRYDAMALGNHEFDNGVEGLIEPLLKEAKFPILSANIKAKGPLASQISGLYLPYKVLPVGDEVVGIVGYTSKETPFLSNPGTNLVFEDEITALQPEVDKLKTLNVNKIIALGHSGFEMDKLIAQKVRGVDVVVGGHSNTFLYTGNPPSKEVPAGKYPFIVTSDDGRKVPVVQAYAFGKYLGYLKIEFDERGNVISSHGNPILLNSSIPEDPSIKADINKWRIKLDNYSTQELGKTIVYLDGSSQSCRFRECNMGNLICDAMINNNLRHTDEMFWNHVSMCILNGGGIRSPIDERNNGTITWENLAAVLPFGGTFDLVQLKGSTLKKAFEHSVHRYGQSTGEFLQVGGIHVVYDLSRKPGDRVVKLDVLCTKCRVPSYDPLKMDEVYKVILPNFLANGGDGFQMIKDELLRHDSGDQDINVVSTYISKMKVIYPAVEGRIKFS

T2: human recombinant soluble CD73 protein (human, UniProt P21589 27-547)
T2 construct: also called huCD73; rhCD73
T2 sequence: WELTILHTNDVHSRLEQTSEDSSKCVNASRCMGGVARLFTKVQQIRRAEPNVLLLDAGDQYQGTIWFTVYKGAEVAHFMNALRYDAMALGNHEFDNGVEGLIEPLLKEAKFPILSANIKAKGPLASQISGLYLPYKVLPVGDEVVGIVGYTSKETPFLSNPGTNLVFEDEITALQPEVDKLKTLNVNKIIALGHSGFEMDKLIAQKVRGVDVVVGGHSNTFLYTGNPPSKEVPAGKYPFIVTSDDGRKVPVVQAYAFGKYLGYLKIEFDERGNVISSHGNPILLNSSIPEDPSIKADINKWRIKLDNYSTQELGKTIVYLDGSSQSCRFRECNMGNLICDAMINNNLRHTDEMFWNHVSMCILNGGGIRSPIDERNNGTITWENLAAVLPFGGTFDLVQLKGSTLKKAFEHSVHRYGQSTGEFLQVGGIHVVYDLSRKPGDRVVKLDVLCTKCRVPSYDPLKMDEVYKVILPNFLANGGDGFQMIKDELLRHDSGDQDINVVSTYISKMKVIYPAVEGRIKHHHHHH

B1: H1L0 (antibody, human IgG1, V domains shown)
VH: QIQLVQSGAEVKKPGASVKVSCKASGYTFTSYNMYWVRQAPGQRLEWMGYIDPYNGGSSYNLTFKGRVTITRDKSASTAYMELSSLRSEDTAVYYCARGYGNYKAWFAYWGQGTLVTVSS
VL: DIQMTQSPSSLSASVGDRVTITCKASQSVSNDVAWYQQKPGKAPKLLIYYASTRYTGVPSRFSGSGSGTDFTFTISSLQPEDIATYYCQQDYSSLTFGQGTKLEIK
notes: L0 VL limits counted by alignment with L1
B2: H3L1 (antibody, human IgG1, V domains shown)
VH: B1 VH with T28A, R44S, M48I, R67K, V68A, R72V
VL: B1 VL with S67Y
B3: H2L1 (antibody, human IgG1, V domains shown)
VH: B1 VH with T28A, R44S, R72V
VL: B1 VL with S67Y
B4: H2L0 (antibody, human IgG1, V domains shown)
VH: B1 VH with T28A, R44S, R72V
VL: B1 VL
notes: as for B1
B5: H3L0 (antibody, human IgG1, V domains shown)
VH: B1 VH with T28A, R44S, M48I, R67K, V68A, R72V
VL: B1 VL
notes: as for B1
B6: chimeric parental 3C12 antibody (antibody, human IgG1, V domains shown)
VH: QIQLQQSGPELVKPGASVKVSCKASGYAFASYNMNWVKQSHGKSLDWIGYIDPYNGGSSYNLTFKGKATLTVDKSSTTAYMHLNSLTSEDSAVYYCARGYGNYKAWFAYWGQGTLVTVSA
VL: DVVMTQTPKFLLVSAGDRVTITCKASQSVSNDVAWYQQKPGQSPKLLIYYASTRYTGVPDRFTGSGYGTDFTFTISTVQAEDLAVYFCQQDYSSLTFGAGTKLELK
notes: also called HPLP; parental antibody 3C12
B7: H1L1 (antibody, human IgG1, V domains shown)
VH: B1 VH
VL: B1 VL with S67Y
B8: H1L2 (antibody, human IgG1, V domains shown)
VH: B1 VH
VL: B1 VL with S60D, S67Y
B9: H4L1 (antibody, human IgG1, V domains shown)
VH: B1 VH with T28A, T30A, R44S, M48I, R67K, V68A, I70L, R72V
VL: B1 VL with S67Y
B10: H4L4 (antibody, human IgG1, V domains shown)
VH: B1 VH with T28A, T30A, R44S, M48I, R67K, V68A, I70L, R72V
VL: B1 VL with I2V, S60D, S67Y, Y87F

Numbering of substitutions follows the chain as printed.

By EC50 (read off the curve) is commonly meant the midpoint of the concentration-response curve. A word on the Kd: it is the concentration at which binding is half-saturated. The koff is the first-order rate constant of dissociation. As usually defined, the kon is the second-order rate constant of association.

The first assay has as its target T1, human CD73 expressed at the surface of …. In words: flow cytometry titration on transfected cells expressing human CD73, PE goat anti-human IgG (H+L) detection, MFI. In general terms: In flow cytometry, cells or beads pass a laser one at a time.
Take B1: the half-maximal effective concentration (EC50 (read off the curve)) is approximately 0.2 µg/mL.

As for B2, the “EC50 (read off the curve)” value is approximately 0.3 µg/mL.

Take B3: the “EC50 (read off the curve)” value is approximately 0.1 µg/mL.

As for B4, the “EC50 (read off the curve)” value was approximately 0.2 µg/mL.

With B5, the “EC50 (read off the curve)” value was approximately 0.2 µg/mL.

A further assay has as its target T3, cynomolgus CD73 expressed on transfected cells (cynomolgus monkey (Macaca fascicularis)).
T3 construct: cell-surface expressed on a transfected cell line; Same protein as m38, which is the recombinant soluble form; It is kept apart from m38 as the first reading kept m36 and m37 apart for human CD73; also called cynomolgus CD73 protein (cell surface); cyCD73
Briefly: flow cytometry titration on transfected cells expressing cynomolgus CD73, PE goat anti-human IgG (H+L) detection, MFI.
Take B6: the “EC50 (read off the curve)” value is approximately 0.2 µg/mL.

With B7, the “EC50 (read off the curve)” value was approximately 0.2 µg/mL.

Consider B8, for which the “EC50 (read off the curve)” value was approximately 0.2 µg/mL.

B9: the concentration for a half-maximal effect (EC50 (read off the curve)) was approximately 0.2 µg/mL.

As to B4, the “EC50 (read off the curve)” value is approximately 0.2 µg/mL.

Take B5: the “EC50 (read off the curve)” value is approximately 0.2 µg/mL.

The target of another assay is T2, human recombinant soluble CD73 protein. In words: SPR, Ab captured on Protein A, soluble huCD73 as analyte. The protocol:
SPR measurements were performed on a Biacore™ T200 apparatus at 25° C. Protein-A (GE Healthcare) was immobilized on a Sensor Chip CM5 (GE Healthcare). […] The entire sensorgram sets were fitted using the 1:1 kinetic binding model. Bivalent affinities and kinetic association and dissociation rate constants are calculated.
The binding of the antibodies in Table 2 of Example 1 were tested for binding to human soluble dimeric CD73 proteins and were cloned, produced and purified. Affinity and association and dissociation constants of humanized variants were assessed by SPR analysis.
On to B6, for which the Kd worked out at 0.68 nM.

Take B1: the Kd turned out to be 28.7 nM, the koff came to 0.00296 s⁻¹ and the kon was found to be 103000 M⁻¹ s⁻¹.

Take B10: the Kd turned out to be 1.2 nM, the koff was determined as 7.14e-05 s⁻¹ and the kon was 60100 M⁻¹ s⁻¹.

Turning to B7, the Kd was determined as 0.8 nM, the koff amounted to 8.43e-05 s⁻¹ and the kon came to 100000 M⁻¹ s⁻¹.

As to B2, the Kd was determined as 1.8 nM, the koff was 0.00014 s⁻¹ and the kon stood at 78900 M⁻¹ s⁻¹.

For B3, the Kd came to 1.4 nM, the koff stood at 0.000118 s⁻¹ and the kon is 83700 M⁻¹ s⁻¹.

Take B8: the Kd worked out at 0.6 nM, the koff worked out at 8.38e-05 s⁻¹ and the on-rate constant (kon) stood at 135000 M⁻¹ s⁻¹.

Regarding B9, the Kd is 1.7 nM, the koff was 0.000179 s⁻¹ and the kon amounted to 106000 M⁻¹ s⁻¹.

On to B5, for which the equilibrium dissociation constant (Kd) was found to be 29.4 nM, the koff stood at 0.00797 s⁻¹ and the kon came out at 271000 M⁻¹ s⁻¹.

The values are drawn from patent US20220041744A1 (INNATE PHARMA, published 2022).
